Measured values published in patent publication US20090178146.

Tests used:
[1] = system: GST-fused SP-3 peptide of NFAT1 (amino acids 264-295) with Ser>Ala substitutions in the serines phosphorylated in cells
[2] = system: GST-fused peptide corresponding to the SP-3 motif (amino acids 264-295) of NFAT1, wild type

## recombinant DYRK1A protein kinase (Upstate Biotechnology), bacterially expressed
[1]
  in vitro kinase assay with recombinant kinase, phosphorylation of GST-peptide: neither kinase phosphorylated an SP-3 peptide with Ser>Ala substitutions in the specific serine residues known to be phosphorylated in cells
[2]
  in vitro kinase assay with recombinant kinase, phosphorylation of GST-peptide: DYRK2 and DYRK1A both displayed strong and selective kinase activity towards the SP-3 motif of NFAT1
